Assays:
[1] = molecular target: hemagglutinin on live influenza A virus, A/California/4/09 H1N1 (Influenza A virus …); test: cell-based or functional assay
[2] = molecular target: recombinant soluble homotrimeric HA of A/Solomon Islands/3/06 (H1N1) (Influenza A virus A/Solomon …); test: HA microarray, BCC supernatant
[3] = molecular target: recombinant soluble homotrimeric HA of A/Netherlands/219/03 (H7N7) (Influenza A virus …); test: HA microarray, BCC supernatant
[4] = molecular target: recombinant soluble homotrimeric HA of A/California/4/09 (H1N1) (Influenza A virus …); test: HA microarray, BCC supernatant
[5] = molecular target: recombinant soluble homotrimeric HA of A/Anhui/1/05 (H5N1) (Influenza A virus A/Anhui/1/2005(H5N1)); test: HA microarray, BCC supernatant
[6] = molecular target: recombinant soluble homotrimeric HA of A/swine/Ontario/01911-2/99 (H4N6) (Influenza A virus …); test: HA microarray, BCC supernatant
[7] = molecular target: recombinant soluble homotrimeric HA of A/Japan/305/57 (H2N2) (Influenza A virus A/Japan/305/1957(H2N2)); test: HA microarray, BCC supernatant
[8] = molecular target: recombinant soluble homotrimeric HA of A/chicken/Vietnam/NCVD-016/08 (H5N1) (Influenza A virus …); test: HA microarray, BCC supernatant
[9] = molecular target: recombinant soluble homotrimeric HA of A/northern shoveler/California/HKWF115/07 (H6) (Influenza A virus A/northern …); test: HA microarray, BCC supernatant
[10] = molecular target: recombinant soluble homotrimeric HA of A/Hong Kong/2108/03 (H9N2) (Influenza A virus A/HK/2108/2003(H9N2)); test: HA microarray, BCC supernatant
[11] = molecular target: recombinant soluble homotrimeric HA of A/Wisconsin/67/05 (H3N2) (Influenza A virus …); test: HA microarray, BCC supernatant
[12] = molecular target: recombinant soluble homotrimeric HA of A/Indonesia/5/05 (H5N1) (Influenza A virus …); test: HA microarray, BCC supernatant
[13] = molecular target: recombinant soluble homotrimeric HA of A/Vietnam/1203/04 (H5N1) (Influenza A virus …); test: HA microarray, BCC supernatant
[14] = molecular target: recombinant soluble homotrimeric HA of A/duck/Yangzhou/02/05 (H8N4) (Influenza A virus …); test: HA microarray, BCC supernatant
[15] = molecular target: hemagglutinin on whole influenza A virions, A/Wisconsin/67/05 H3N2 (Influenza A virus …); test: cell-based or functional assay
[16] = molecular target: hemagglutinin on whole influenza A virions, A/Solomon Islands/3/06 H1N1 (Influenza A virus A/Solomon …); test: cell-based or functional assay
[17] = molecular target: recombinant trimeric HA of H1N1 A/California/04/09 (Influenza A virus A/California/04/2009 …)

B1: TCN-555 (5246_L16) (antibody, V domains shown)
VH: QVQLVQSGAEVKRPGSSVKVSCTASGGIFRKNAISWVRQAPGQGLEWMGGIIAVFNTANYAQKFQNRVKITADESGNTAYMELSSLTSDDTAVYYCASHPKYFYGSGSYPDFWGQGTLVTVSS
VL: QSALTQPRSVSGSPGQSITISCTGGSSDIGASNSVSWYQQHPGKAPKLVIFDVTERPSGVPHRFSGSKSGNTASLTVSGLQPDDEADYFCCAYGGKYLVVFGGGTKVTVL
For B1, the “% Neutralization” value [1] was 89%.

B2: TCN-556 (5089_K12) (antibody, V domains shown)
VH: QVQLVQSGAEVKKPGASVKVSCKASGYTFIGYDMHWVRQAPGQGLEWMGWINAKRGGTNYAQKFQGRVTMTRDTSISTAYMELNSLRSDDTAVYYCARGVGSRTTIFGVLNPEFDYWGQGTLVTVSS
VL: QSALTQPPSASGSPGQSVTISCTGSSSDVGGYDYVSWYQQHPGKAPKLLIYEVTKRPSGVPDRFSGSKSGNTASLTVSGLQAEDEADYYCSSYAGNYNHVFGPGTKVTVL
In the case of B2, the “Trimeric HA Binding: RLU” value [2] is reported as 2850 RLU, the “Trimeric HA Binding: RLU” value [3] is reported as 10600 RLU and the “Trimeric HA Binding: RLU” value [4] is reported as 14600 RLU. The “Trimeric HA Binding: RLU” value [5] was 3700 RLU, the “Trimeric HA Binding: RLU” value [6] was 5600 RLU and the “Trimeric HA Binding: RLU” value [7] was 5610 RLU. The “Trimeric HA Binding: RLU” value [8] was 8800 RLU, the “Trimeric HA Binding: RLU” value [9] was 11900 RLU and the “Trimeric HA Binding: RLU” value [10] was 7410 RLU. The “Trimeric HA Binding: RLU” value [11] was 9320 RLU, the “Trimeric HA Binding: RLU” value [12] was 8450 RLU and the “Trimeric HA Binding: RLU” value [13] was 13800 RLU. The “Trimeric HA Binding: RLU” value [14] was 16900 RLU.

B3: TCN-553 (5261_C18) (antibody, V domains shown)
VH: QVQVVQSGTEVKKPGSSVKVSCQTSGGRFMSYAITWVRQAPGQGLEWMGGIVPVFGTANYAQKFQGRVTITTDDSTRTAYMELSSLRSEDTAVYYCGFRYGSGYGFDSWGQGTLVTVSS
VL: EIVLTQSPGTLSLSPGERATLSCRASQSVSSSYLAWYQKKPGQAPRLLIYGASTRATGIPDRFTGSGSGTDFTLSISRLEPEDFAVYYCQHFGTSVFTFGGGTKVEIK
B3 was tested, and the “% Neutralization” value [1] was 83%.

B4: TCN-560 (5084_P10) (antibody, V domains shown)
VH: EVQLVESGGGLVQPGGSLRLSCAASGFIFRNYWMSWVRQAPGKGLEWVANIKQDGREKYYVDSLRGRVNISRDNAENSLYLHMNSLRVEDTAVYFCARARMVVVTGDGFDVWGHGTMVTVSS
VL: DIQMTQSPSSLSASVGDRVTITCRASQNIKRYFNWYQQKPGKAPKLLIYAASNLENGVPSRFSGSGSGTDFTLTISSLQPEDFATYYCQQSFSKSWTFGQGTNVDIK
With B4 the “Trimeric HA Binding: RLU” value [2] was 38800 RLU, the “Trimeric HA Binding: RLU” value [3] was 48500 RLU and the “Trimeric HA Binding: RLU” value [4] was 49200 RLU. For the same binder, the “Trimeric HA Binding: RLU” value [5] was 49100 RLU, the “Trimeric HA Binding: RLU” value [6] was 41600 RLU and the “Trimeric HA Binding: RLU” value [7] was 46700 RLU. The “Trimeric HA Binding: RLU” value [8] was 46000 RLU, the “Trimeric HA Binding: RLU” value [9] was 42300 RLU and the “Trimeric HA Binding: RLU” value [10] was 49400 RLU. For the same binder, the “Trimeric HA Binding: RLU” value [11] was 49100 RLU, the “Trimeric HA Binding: RLU” value [12] was 35900 RLU and the “Trimeric HA Binding: RLU” value [13] was 44000 RLU. For the same binder, the “Trimeric HA Binding: RLU” value [14] was 44700 RLU.

B5: TCN-554 (5277_M05) (antibody, V domains shown)
VH: QVQLVQSGADLKKPGASVKVSCKASGYTFTDYYIHWVRQAPGQGLEWMGWINPESGDTKYAQKFQGRVTMTRDTSITTAYMELGRLRSDDTAVYYCARDVSTTWSWFAPWGQGTLVTVSS
VL: DIVMTQSPDSLAVSLGERATINCRSSQSIFHNSNNENYLAWYQQKPGQPPKLLIYWASTRESGVPDRFSGSGSGTDFTLTISSLQAEDVAVYFCQQYYNAPLTFGGGTKVEIK
With B5 the “% Neutralization” value [1] was 0%.

B6: TCN-557 (5081_A04) (antibody, V domains shown)
VH: QVQLVQSGAEVKKPGASVKVSCKASGHTFTGYYIHWVRQAPGQGLEWMGWINPDSGATSSAQNFQGRVTMTGDTSSSTAYMELSRLSFDDTAVYYCARVLFTSPFDFWGEGTLVTVSS
VL: QAVVTQEPSLAVSPGGTVTLTCGSSTGAVTRGHYPYWFQQKPGQAPRALIYDSAGNRHSWTPARFSGSLLGGKAALTLSGAQPEDEAEYYCLLSYSGVWVFGGGTKLTVL
In the case of B6, the “% Neutralization” value [1] is reported as 10%, the “% Neutralization” value [15] is reported as 0% and the “% Neutralization” value [16] is reported as 7%.

B7: TCN-549 (5092_P04) (antibody, V domains shown)
VH: QVQLVQSGAEVKKPGASVKVSCKASGYTFTGYYMHWVRQAPGQGLEWMGWINPNSGDTNYAQKFQGRVTMTRDTSITTAYMELSSLRSDDTAVYYCARDSPYSSSWSFFDYWGQGPLVTVSS
VL: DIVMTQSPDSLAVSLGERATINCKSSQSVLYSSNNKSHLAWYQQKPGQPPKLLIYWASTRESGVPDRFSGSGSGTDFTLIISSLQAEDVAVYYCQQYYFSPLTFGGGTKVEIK
For B7, the “% Neutralization” value [1] was 0%, the “% Neutralization” value [15] was 100% and the “% Neutralization” value [16] was 0%.

B8: TCN-552 (5249_I23) (antibody, V domains shown)
VH: QVQVVQSGAEVKKPGSSVRVSCQASGGTFMNYAIIWVRRAPGQGLEWMGGIIPVFPTPNYAQMFQGRVTISTDESRSTSFLELTNLRYEDTAVYYCARRIYHGGNSGFDFWGQGTLVTVSS
VL: EIVLTQSPATLSLSPGERATLSCRASQSVGNYLAWYQQKPGQAPRLLIYDSSNRAPGIPARFSGSGSGTDFTLTISSLAPEDFAVYYCQQRSKWPPMYSFGHGTKLEIK
With B8 the “% Neutralization” value [1] was 81%.

B9: TCN-558 (5248_H10b) (antibody, V domains shown)
VH: QVQLVQSGSEVKKPGTSVKVSCTASGSVFTNYGISWVRQAPGQGLEWMGGIIPLFGAAKYAQKFQGRVTITADESTKTVYMELSRLTSKDTAIYFCAKAPRVYEYYFDQWGQGTPVTVSS
VL: EIVMTQFPATLSVSPGERVTLSCRASQSVSNNLAWYQQKPGQPPRLLIYDASTRATGVPAKFSGTGSGTEFTLSISSLQSEDFAVYYCQQYHNWPPSYSFGLGTKLEIK
With B9 the “% Neutralization” value [1] was 96%.

B10: Fab fragment of TCN-533 (5256_A17a) (Fab, V domains shown)
VH: QVQLVQSGADVKKPGSSVTVSCKASGGSFSNYGINWVRQAPGQGLEWMGGIIPLINAPNYAPKFQGRVTITADMFSNIVSLQLTSLRTDDTAVYYCARRKMTTAIDYWGQGTLVTVSS
VL: QPVLTQPPSASASLGASVTLTCTLSSAYSNYKVDWYQQRPGKGPRFVMRVGTGGIVGSKGDGIPDRFSVLGSGLNRYLTIKNIQEEDESDYHCGADHGSGSNFVSPYVFGGGTKLTVL
B10 was tested, and the Kd [17] was 129 pM, the koff [17] was 8.2e-05 s⁻¹ and the kon [17] was 635000 M⁻¹ s⁻¹.

B11: TCN-547 (5092_F11) (antibody, V domains shown)
VH: QVQLQESGPGLVKPSQTLSLTCTVSGDSISSVDHYWSWIRQHPVKGLEWIGFMYYSASTYYNPSLKSRVTISTDTSKNQFSLRLSSVTAADTAVYYCARGTCAGDCSLHYYYYGLDVWGQGRTVTVSS
VL: DIQMTQSPSSLSASVGDRVTITCRASQSISSYLNWYQHKPGKAPKVLMYAVSILQSGVPSRFSGSGSGADFTLTISSLQPEDFATYYCQQSYSSPLTFGGGTKVEIK
In the case of B11, the “% Neutralization” value [1] is reported as 0%, the “% Neutralization” value [15] is reported as 88% and the “% Neutralization” value [16] is reported as 0%.

B12: TCN-548 (5092_P01) (antibody, V domains shown)
VH: QVQLQESGPGLVKPSETLSLTCTVSSGPMSDYYWSWIRQPPGKGLEWIGHVSVSHGGRTKSNPSVMSRVTISVETSKNQFSLKLTSVTAADTAVYYCARLNYYDRSGYHSPDGPSNNWFDPWGQGTLVTVSS
VL: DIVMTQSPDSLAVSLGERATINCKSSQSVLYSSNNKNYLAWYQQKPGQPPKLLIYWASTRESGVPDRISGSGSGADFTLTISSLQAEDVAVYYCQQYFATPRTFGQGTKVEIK
For B12, the “% Neutralization” value [1] was 0%, the “% Neutralization” value [15] was 96% and the “% Neutralization” value [16] was 0%.
